Measured values reported in article PMC7949091.

Target: HA-tagged extracellular domain of EspIgR (E. sinensis polymeric immunoglobulin receptor) (E. sinensis)

percentage of hemocyte phagocytosis of FITC-labeled S. aureus coated with rEsVg-DUF1943, in vitro, flow cytometry (controls ∼11.39%; with siEspIgR ∼5.57%): 22.1%
Substance: Flag-tagged EsVg-DUF1943 domain (domain or fragment)
percentage of hemocyte phagocytosis of FITC-labeled V. parahaemolyticus coated with rEsVg-DUF1943, in vitro, flow cytometry (with siEspIgR ∼6.10%): 21.5%
